Assay [1] has as its target soluble rhTNFR-1 extracellular domain protein (human) (UniProt P19438). The experiment in a line: Western blot of soluble hTNFR probed with AF225 pre-mixed with 1:10 BAF225-3 : wild type T7 phage; plaque lift of recovered phage with AF225. A general note: In western blotting, separated proteins are transferred to a membrane and probed.
Assay [2] shares this target. Description: Western blot of soluble hTNFR probed with AF225 pre-mixed with 1:10 BAF225-3 : wild type T7 phage; phage eluted from excised bands and titered.

UniProt P19438, sequence (P19438 30-211 limits assumed): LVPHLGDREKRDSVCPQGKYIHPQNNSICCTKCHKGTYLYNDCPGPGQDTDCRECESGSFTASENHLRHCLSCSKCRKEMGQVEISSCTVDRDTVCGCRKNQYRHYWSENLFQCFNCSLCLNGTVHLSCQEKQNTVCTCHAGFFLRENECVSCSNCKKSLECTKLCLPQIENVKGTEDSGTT

On to “goat anti-hTNFR polyclonal antibody (AF225)”, for which, in assay [1], the enrichment of target phage relative to negative phage came out at 190 fold and the percent of phage recovered from the TNFR band that were target phage is 95%. The same substance yielded a fold more phage recovered from the TNFR band than from the negative control in assay [2] of 100 fold.

(Values after US7192720.)
